Results published in the supplement of paper PMC9170038.

Key:
MS2 coat protein [1] = assay: apparent KD of MS2 coat protein, switch OFF state (with FMN for OFF switches, without FMN for ON switches); designed switch direction (-1 OFF switch, 1 ON switch): -1; higher = weaker reporter binding; settings: FMN input: 0 or 200 uM; Eterna round: R93 (includes R88 designs)
Summary of the method: (§1)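 Normalised binding curves from single clusters were fitted, and the median fit for each design is given as apparent KD. The clusters held designed RNA switches transcribed on-chip from Illumina sequencing clusters. These were titrated with SNAP-549-labelled MS2 coat protein (twofold steps from 0.7 or 1.5 nM to 3 µM, 0.8–1.5 h to 10–20 min per step) in 100 mM Tris-HCl pH 7.5, 80 mM KCl, 4 mM MgCl2, without or with constant ligand.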

MS2 coat protein [2] = assay: apparent KD of MS2 coat protein, switch ON state; designed switch direction (-1 OFF switch, 1 ON switch): -1; higher = weaker reporter binding; settings: FMN input: 0 or 200 uM; Eterna round: R93 (includes R88 designs)
Summary of the method: as §1

MS2 coat protein [3] = assay: apparent KD of MS2 coat protein; higher = weaker reporter binding; settings: Eterna round: R107
Summary of the method: as §1

[4] = input ligand: theophylline 20 uM
[5] = input ligand: theophylline 2 mM
[6] = input ligand: tryptophan 2.4 mM

Row | Sequence | apparent KD of MS2 coat protein (MS2 coat protein [1]) [nM] | apparent KD of MS2 coat protein (MS2 coat protein [2]) [nM] | apparent KD of MS2 coat protein (MS2 coat protein [3]; input ligand: arginine 13.2 mM) [nM] | apparent KD of MS2 coat protein (MS2 coat protein [3]; [4]) [nM] | apparent KD of MS2 coat protein (MS2 coat protein [3]; [5]) [nM] | apparent KD of MS2 coat protein (MS2 coat protein [3]; [6]) [nM] | apparent KD of MS2 coat protein (MS2 coat protein [3]; input ligand: none) [nM]
1 | AAGAAGUGAGGAUAUGCUGCUCGUCACUUGCGUGAUGAGUAGCAGAAGGCACAUGAGGAUCACCCAUGUAAAAA [Mat - Exaclusion 4 - Eli mod - D2] | 45.7 | 34.8 |  |  |  |  | 
2 | AGGGAGUCAGGAUAUCGGAAAAAAAAACAACGAAAAAAAGACGAGAAGGGACAUGAGGAUCACCCAUGUAAGAA [milkweed 16] | 23.5 | 41.4 |  |  |  |  | 
3 | GGAACACAUGAGGAUCACCCAUGUCAGGAUAUGUAGAUAAAAAGAAAAUAAAAUAAAAGCAGAAGGGACAAAAG [May 4] | 44.5 | 60.2 |  |  |  |  | 
4 | AAAAAACAUGAGGAUCACCCAUGUGAGGAUAUCAAAUAAAGGCACAUGAGAAGGCAUAUGAGAAGGCACAUGAA [Meechl MS2 Ex1 2] |  | 41.4 |  |  |  |  | 
5 | GGUACAUGAGGAUCACCCAUGUAUUAGUGCCGAGGACCGGUACGGCCGCCACUCGCUUCACAUGAGGAUCACCCAUGUGUCACUG [SSTA DOUBLE!!! :-D #14] |  |  | 23.6 | 35.9 | 36.1 |  | 
6 | AAUAACAUGAGGAUCACCCAUGUAAAAGAUACCAGAGUGAUGAUCCUCCCUUGGCAGCUUAACGCUGAUUGAUUACAAUCAGCGA [TheoAS 3 #Tail #MS2BeforeAptamer #BothOrNeither] |  |  | 46.4 | 128 |  | 67.1 | 
7 | ACGACAUGAGGAUCACCCAUGUACUCUGAAGGAGCGUCGAUUACGACAGGUAGGUCGCAGGCUAAGGAUGGUGAUGCUCAAGACG [Exclusion Arginine A GF8] |  |  | 53.5 | 90.4 | 114 | 57.8 | 87.7
8 | AGACAUGAGGAUCACCCAUGUGAAGUGGAUACCAGCCGCAGCGAUGGCCCUUGGCAGCCAGCUUUGUGUCGAUACAUCCGCACUU [theeternabot_exclusion_MS2_Theo_A_2] |  |  | 16.9 | 22.9 |  | 18.1 | 
9 | AUAAUAAUCAUGGGUGAAGGUCCUCGCAAACGAGGACCGGUACGGCCGCCACUCGAACAUGAGGAUCACCCAUGUGUGAGGACCU [M' - T' - T - MS2 - T'' Design 2] |  |  | 24.9 | 59.7 | 74.1 |  | 
10 | CCGUUCUCUGCGGCCGCCACUCAAGGAGCUACAUAGCUCCUAGACAUGAGGAUCACCCAUGUCGCGAGGACCGGGUAGAUUCUCC [Same State Typptophan B GF9] |  |  | 34.4 | 63.6 | 64.2 |  | 
11 | AUUCCAUUGGUGCAGUUGUUAAAUGGCGAUACCAGCGUGGAAACACGCCCUUGGCAGCGCCAAAACAUGAGGAUCACCCAUGUUA [Havirov] |  |  | 32.1 | 70.5 |  | 59.1 | 
12 | AAAAGAGGUGGAAGGAGCGGGAGACAUGAGGAUCACCCAUGUGAAGUGACGAAAGGAUCAGCCCAGGUAGGUCGCCAUGUCGAAA [yuiiumullin] |  |  | 31 | 73.2 | 25.9 | 41.3 | 43.9
13 | UGAUUGAACGGAAGGAGCGUGAAGAGAGAGAAACAUGAGGAUCACCCAUGUAGAGAGAGAUCACAGGUAGGUCGCCGAGAGAUUG [11.C] |  |  | 17.8 | 20.8 | 21 | 17.1 | 15
14 | CCGGCCAAUUAGAAAUUAAUUGGCCGGAAACGAGGACCGGUACGGCCGCCACUCGUGGCGGGAGAAACAUGAGGAUCACCCAUGU |  |  | 23 | 54.7 | 53 |  | 
15 | UCGUGUGUUUCGGAUACCAGUGAAAUCGAUACAUGAGGAUCACCCAUGUGAGAGGAUGUACACCCUUGGCAGCUGUCUGUAGCGG [asczmullin] |  |  | 26.9 | 38 |  | 38.3 | 
16 | ACGACGCAUAGUGAUACCAGUAGAACAUGAGGAUCACCCAUGUCUGUGACGCACCACCUCUGCCCUUGGCAGCACUAUGCGUCAG [SSTheo B #8] |  |  | 22.3 | 30.3 |  | 23 | 
17 | UUAUAAGUACCGGUCCUCAGAUCCUCAUGACGAGGACCGGUACGGCCGCCACUCGAAACAUGAGGAUCACCCAUGUAAUAAUAUU [Brourdmod07] |  |  | 16 | 25.3 | 23.3 |  | 

Row | Sequence | apparent KD of MS2 coat protein (MS2 coat protein [1]) [nM] | apparent KD of MS2 coat protein (MS2 coat protein [2]) [nM] | apparent KD of MS2 coat protein (MS2 coat protein [3]; input ligand: arginine 13.2 mM) [nM] | apparent KD of MS2 coat protein (MS2 coat protein [3]; [4]) [nM] | apparent KD of MS2 coat protein (MS2 coat protein [3]; [5]) [nM] | apparent KD of MS2 coat protein (MS2 coat protein [3]; [6]) [nM] | apparent KD of MS2 coat protein (MS2 coat protein [3]; input ligand: none) [nM]
18 | UCGGAGAAGUCGGCCGCCACUGAACUCUUGUUCUACAUGAGGAUCACCCAUGUUCCUUUGUUUAACAGGACCGGGACUUAUACGA [JR_SSTryptoB_Sub009] |  |  | 108 | 283 | 346 |  | 
19 | AAUCAUAACUGAAGGAGCGUCUAUAUUACAUGAGGAUCACCCAUGUUUAUAUGGUAUUAUAGACAGGUAGGUCGCAGAUUUUUUA [JR_SSArginiB_Sub017] |  |  | 20.7 | 21.6 | 18.7 | 15.8 | 16.8
20 | GACAUGAGGAUCACCCAUGUUGACUAUGAAGGAGCGUCGGAAAUGACAGGUAGGUCGCAUAGUCGACCUUGUAUUUUGUGUGUUU [EAA #9] |  |  | 12.7 | 17.4 | 12.5 | 11.6 | 10.4
21 | UUAGUAACGACGGCCGCCACUGGAUAUGAACAUGAGGAUCACCCAUGUAGAGAUCCUAGAAUAAACAGGACCGGGUCUGAUAAUA [Exclusion Tryptophane B GF 2] |  |  | 17.9 | 21.6 | 17.3 |  | 
22 | AAGGUGAUCCCAGAUACCAGCUCAACAUGAGGAUCACCCAUGUACGGGACGAAAGUCCCGGGCCCUUGGCAGCUGGGUUGCCAAG [SSTheo B #19] |  |  | 42.2 | 299 |  | 185 | 
23 | GGUGGGACUUGUGAUACCAGCCCAGUUCUAAUCGAACUGCACAUGAGGAUCACCCAUGUCGGCCCUUGGCAGCAUGAGUAUUUAU [Esceesor] |  |  | 146 | 160 |  | 326 | 
24 | UCAUGCAGGUCGGCCGCCACUACACACAUGAGGAUCACCCAUGUAGUUACUGGGUGAAGUGGCAGUAGGACCGGGACCUGCACAU [Brourdmod16] |  |  | 253 | 369 | 452 | 460 | 607
25 | AUCAUGUAAUCAGAUACCAGACAUCUUUUAAUACAUAUUACAUGAGGAUCACCCAUGUUGGUCCCUUGGCAGCUGAAAUAUUUUU [JR_Nu_SSTheophyB_Sub027] |  |  | 128 | 191 |  | 246 | 
26 | ACAUGAGGAUCACCCAUGUGGCGACUUGAUACCAGACCCGCACUAGUCCCUUGGCAGCAACUACGUGUGGGACACCCAUGUGAAG [aszkullin] |  |  | 17.5 | 23.9 |  | 20.2 | 
27 | AUACAUGAGGAUCACCCAUGUUAUAGUGAAGGAGCGACAUUUAGGUCAGGUAGGUCGCACUAUUGAAUUAUUAUUCUCAGUUCUU [JR_ExcArginiA_Sub019] |  |  | 14.2 | 21.8 | 13.7 | 15.2 | 13.2
28 | ACGUCCGGUUUACUCGUGGGCAUGGUCGAUACCAGUAUUUUAAUCUACCCUUGGCAGCGACAUGAGGAUCACCCAUGUGCGAAGA [XTheo A #21] |  |  | 21.5 | 30.6 |  | 22.8 | 
29 | UCGGGCAGAGCGGCCGCCACUGUUUGGCAUGCGGAUGAAGGAACAUGAGGAUCACCCAUGUAGAUUAGGACCGGGCUAGCGGAGA [sscsmullin] |  |  | 12.1 | 42.1 | 18.4 | 16.3 | 17.2
30 | AAAAGAGGUGGAAGGAGCGGGAGACAUGAGGAUCACCCAUGUGAAGUGACGAAAGGAUCAUCCCAGGUAGGUCGCCAUGUCGAAA [csstmullin] |  |  | 5.43 | 44.6 | 39 | 21.7 | 147
31 | GGAUAGGACACGGCCGCCACUAGCUAGGAUACUAGCAACAUUUCCUCACAAGAGGAUCACCCUUGUAGGACCGGGUGUCCUAUCG |  |  | 84.9 | 115 | 118 | 139 | 93.7
32 | CUCGAGUUAUGAGAUACCAGACUAUAGUUUACAUGAGGAUCACCCAUGUUAUGGGUGGUAGUCCCUUGGCAGCUCAUAUGUUUAA [#06 Exclusion-TheophyllineB] |  |  | 210 | 274 |  | 305 | 
33 | ACUAGUUGUGCAGAUACCAGACAUGAGGAUCACCCAUGUUUGGGAUCUAAUGAUCAUCUUGUCCCUUGGCAGCUGUACAUCUAGA [Omei Theo B Exc v1] |  |  | 27.1 | 72.6 |  | 55.5 | 
34 | UGACGAUACCUGGAUACCAGCGACAUGAGGAUCACCCAUGUAUGAGGAUCAGCCAUGUUAUGCCCUUGGCAGCCACGAAGGUCUU [CSCMULLIN] |  |  | 28.9 | 55.4 |  | 33.1 | 
